Changes are numbered by the printed parent chain.

The target in assay [1] is T1, recombinant human Notch3 (EGF9-14) (human, UniProt Q9UM47 351-580).
T1 construct: The whole entry for hNotch3 is named here; also called hNotch3; h-Notch3
T1 sequence: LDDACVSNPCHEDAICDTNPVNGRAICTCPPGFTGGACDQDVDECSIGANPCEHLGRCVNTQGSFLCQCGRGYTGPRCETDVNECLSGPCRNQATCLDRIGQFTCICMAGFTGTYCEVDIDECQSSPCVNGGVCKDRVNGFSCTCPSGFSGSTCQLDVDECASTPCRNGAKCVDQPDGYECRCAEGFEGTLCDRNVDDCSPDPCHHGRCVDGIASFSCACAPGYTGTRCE
Put plainly: Biacore 2000 SPR; Notch protein amine-coupled to CM5 chip, antibody 1-100 nM injected. The procedure:
(§1) The affinities for human and mouse Notch1, Notch2, Notch3, and Notch4 were determined using a Biacore 2000 instrument. Briefly, recombinant human and mouse Notch proteins (EGF10-15 for Notch1, 2, & 4; EGF9-14 for Notch3) were immobilized on a CM5 chip using standard amine based chemistry (NHS/EDC). For hNotch2. EGF1-12 was also tested for binding. Different antibody concentrations (1-100 nM) were injected over the protein surfaces and kinetic data were collected over time. The data was fit using the simultaneous global fit equation to yield dissociation constants (KD, nM) for each Notch (Table 3).
(In general: Surface plasmon resonance follows binding to a sensor surface in real time, without labels.)

Assay [2] deals with T2, recombinant mouse Notch2 (EGF10-15) (mouse, UniProt O35516 375-605).
T2 construct: domain: EGF10-15; also called mNotch2; m-Notch2
T2 sequence (looked up): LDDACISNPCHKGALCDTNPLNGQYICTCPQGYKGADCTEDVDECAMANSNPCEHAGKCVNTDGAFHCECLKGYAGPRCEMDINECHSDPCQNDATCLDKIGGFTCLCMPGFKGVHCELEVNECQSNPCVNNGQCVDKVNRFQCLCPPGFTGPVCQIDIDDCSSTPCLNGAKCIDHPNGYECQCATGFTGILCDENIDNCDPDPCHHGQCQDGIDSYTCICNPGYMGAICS
The assay is described as above. The procedure: as §1

The target in assay [3] is T3, recombinant human Notch2 (EGF10-15) (human, UniProt Q04721 375-605).
T3 construct: The whole entry for hNotch2 is named here; also called hNotch2 **N2(EGF 10-155)
T3 sequence: T2 sequence (looked up) with V121I, I191V, D194E
Described as above. The procedure: as §1

The target of assay [4] is T4, recombinant mouse Notch3 (EGF9-14) (mouse, UniProt Q61982 352-581).
T4 construct: domain: EGF9-14; also called mNotch3; m-Notch3
T4 sequence (looked up): T1 sequence with N22S, T153M, D193E, T227I
The assay is described as above. The procedure:
as §1

Assay [5] concerns the target T5, hNotch2 H385N AL 388-89 SN mutant, full length, on transfected cells (human, UniProt Q04721 26-2471).
T5 construct: also called mutant hNotch2 in which certain EGF10 residues have been mutated to hNotch1 residues
Put plainly: FACS on transfected cells. The procedure:
A comparison analysis of the EGF10 regions of human Notch1, Notch2, and Notch4 and the EGF9 region of human Notch3 (the equivalent of EGF10 in the other Notch receptors) was performed to determine likely binding sites for 59R1 (FIG. 14A). As a result of the analysis, several point mutants were created within full-length Notch2, converting residues within EGF10 to the corresponding amino acids in human Notch 1. Also, conversely, point mutations were made in hNotch1 EGF10 converting residues to the corresponding hN2 residues. Mutants in full-length Notch sequences were generated by QuikChange® mutagenesis (Stratagene) and verified by sequencing. Binding to the mutants was determined by FACS analysis (FIGS. 14B and 14C). 59R1 was detected by PE-conjugated goat anti-human Fc gamma specific antibody (Jackson Immunochemicals, #109-116-170). […] The corresponding residues in hNotch3 are histidine 361, alanine 364, and isoleucine 365.

In assay [6] the target is T6, human Notch4, full length, on transfected cells (human, UniProt Q99466 24-2003).
T6 construct: also called hNotch4
Put plainly: FACS on HEK-293 cells transiently transfected with hNotch4 and GFP. As for the experimental part:
The ability of the 59R1 IgG2 antibody to cross-react with other Notch receptors was determined by FACS assay using HEK-293 cells transiently transfected with the human Notch1, Notch2. Notch3 or Notch4 expression plasmid and green fluorescent protein (GFP) as a transfection control. GFP positive cells indicated expression of the transgene. The 59R1 IgG2 was added to the cells at 2 μg/ml and detected by PE-conjugated goat anti-human Fc gamma specific (Jackson Immunochemicals). All Notch constructs were full length.

In assay [7] the target is T1, recombinant human Notch3 (EGF9-14). Put plainly: Biacore SPR.
The target of assay [8] is T7, human Notch2 as used in the Biacore analysis of Table 6 (construct not stated) (human, UniProt Q04721 375-605, limits assumed).
T7 construct: also called h-Notch2
T7 sequence: T2 sequence (looked up) with V121I, I191V, D194E
Put plainly: Biacore SPR.

The target in assay [9] is T2, recombinant mouse Notch2 (EGF10-15). Kind of assay: Biacore SPR.
Assay [10] concerns the target T4, recombinant mouse Notch3 (EGF9-14). Put plainly: Biacore SPR.

T5 sequence (Q04721 26-2471 H385N/A388S/L389N limits assumed): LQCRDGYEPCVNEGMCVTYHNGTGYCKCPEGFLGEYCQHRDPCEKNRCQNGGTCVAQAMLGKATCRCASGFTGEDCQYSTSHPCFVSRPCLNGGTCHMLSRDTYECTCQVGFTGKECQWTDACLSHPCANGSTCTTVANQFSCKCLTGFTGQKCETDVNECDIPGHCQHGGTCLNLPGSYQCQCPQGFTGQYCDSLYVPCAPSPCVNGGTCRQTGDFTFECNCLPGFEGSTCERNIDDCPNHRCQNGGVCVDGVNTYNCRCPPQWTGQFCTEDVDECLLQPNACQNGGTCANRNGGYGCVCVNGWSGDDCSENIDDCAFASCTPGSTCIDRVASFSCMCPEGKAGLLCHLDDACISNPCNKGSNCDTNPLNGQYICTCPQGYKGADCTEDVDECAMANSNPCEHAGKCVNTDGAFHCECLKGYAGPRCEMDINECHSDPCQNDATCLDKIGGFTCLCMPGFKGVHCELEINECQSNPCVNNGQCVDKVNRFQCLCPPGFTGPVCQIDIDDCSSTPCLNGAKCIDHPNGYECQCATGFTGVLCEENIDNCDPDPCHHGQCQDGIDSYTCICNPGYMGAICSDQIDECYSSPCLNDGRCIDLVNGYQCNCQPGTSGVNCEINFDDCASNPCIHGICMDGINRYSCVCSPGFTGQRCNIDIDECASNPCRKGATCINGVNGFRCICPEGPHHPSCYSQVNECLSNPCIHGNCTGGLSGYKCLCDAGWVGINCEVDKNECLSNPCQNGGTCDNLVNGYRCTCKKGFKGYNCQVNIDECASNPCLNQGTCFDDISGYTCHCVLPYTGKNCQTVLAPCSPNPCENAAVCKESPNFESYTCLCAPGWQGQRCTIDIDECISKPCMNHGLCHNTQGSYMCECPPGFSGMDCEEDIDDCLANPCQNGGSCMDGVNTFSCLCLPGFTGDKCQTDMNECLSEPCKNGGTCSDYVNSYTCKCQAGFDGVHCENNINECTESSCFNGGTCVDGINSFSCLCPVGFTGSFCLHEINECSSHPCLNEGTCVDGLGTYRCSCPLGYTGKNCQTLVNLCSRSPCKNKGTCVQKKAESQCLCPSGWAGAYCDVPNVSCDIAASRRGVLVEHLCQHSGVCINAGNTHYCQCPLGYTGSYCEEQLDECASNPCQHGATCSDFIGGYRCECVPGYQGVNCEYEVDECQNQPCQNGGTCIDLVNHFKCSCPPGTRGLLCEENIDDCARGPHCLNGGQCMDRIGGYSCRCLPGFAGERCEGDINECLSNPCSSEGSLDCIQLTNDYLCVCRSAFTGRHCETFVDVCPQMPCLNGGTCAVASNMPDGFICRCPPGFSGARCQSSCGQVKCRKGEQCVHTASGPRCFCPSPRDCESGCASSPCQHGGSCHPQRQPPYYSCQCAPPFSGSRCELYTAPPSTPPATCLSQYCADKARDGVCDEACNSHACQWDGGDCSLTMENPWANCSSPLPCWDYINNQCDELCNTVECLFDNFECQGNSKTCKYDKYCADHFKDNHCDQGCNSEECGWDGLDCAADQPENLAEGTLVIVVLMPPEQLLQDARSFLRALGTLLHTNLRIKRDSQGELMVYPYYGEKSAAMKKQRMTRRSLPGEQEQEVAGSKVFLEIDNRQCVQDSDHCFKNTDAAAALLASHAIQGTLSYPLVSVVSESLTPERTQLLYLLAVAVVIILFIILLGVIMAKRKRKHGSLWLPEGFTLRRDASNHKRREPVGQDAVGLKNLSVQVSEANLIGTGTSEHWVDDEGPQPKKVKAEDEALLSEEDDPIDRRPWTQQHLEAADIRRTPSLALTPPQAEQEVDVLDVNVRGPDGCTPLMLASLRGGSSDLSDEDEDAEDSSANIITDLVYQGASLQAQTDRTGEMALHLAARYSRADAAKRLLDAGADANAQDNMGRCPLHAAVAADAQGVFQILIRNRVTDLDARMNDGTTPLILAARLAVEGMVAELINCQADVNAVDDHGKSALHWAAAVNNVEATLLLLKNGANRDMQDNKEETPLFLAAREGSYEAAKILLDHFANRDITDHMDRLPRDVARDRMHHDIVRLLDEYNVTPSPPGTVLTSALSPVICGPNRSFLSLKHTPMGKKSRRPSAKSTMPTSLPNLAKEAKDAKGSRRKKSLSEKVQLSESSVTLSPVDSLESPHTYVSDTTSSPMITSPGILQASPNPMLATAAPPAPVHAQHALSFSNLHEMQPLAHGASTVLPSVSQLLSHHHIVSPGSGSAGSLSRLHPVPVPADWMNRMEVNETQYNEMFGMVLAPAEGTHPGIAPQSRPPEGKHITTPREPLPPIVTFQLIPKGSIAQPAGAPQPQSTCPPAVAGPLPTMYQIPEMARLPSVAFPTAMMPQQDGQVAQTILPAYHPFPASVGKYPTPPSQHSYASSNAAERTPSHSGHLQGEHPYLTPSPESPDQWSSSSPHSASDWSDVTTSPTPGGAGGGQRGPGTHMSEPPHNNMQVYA
T6 sequence (Q99466 24-2003 limits assumed): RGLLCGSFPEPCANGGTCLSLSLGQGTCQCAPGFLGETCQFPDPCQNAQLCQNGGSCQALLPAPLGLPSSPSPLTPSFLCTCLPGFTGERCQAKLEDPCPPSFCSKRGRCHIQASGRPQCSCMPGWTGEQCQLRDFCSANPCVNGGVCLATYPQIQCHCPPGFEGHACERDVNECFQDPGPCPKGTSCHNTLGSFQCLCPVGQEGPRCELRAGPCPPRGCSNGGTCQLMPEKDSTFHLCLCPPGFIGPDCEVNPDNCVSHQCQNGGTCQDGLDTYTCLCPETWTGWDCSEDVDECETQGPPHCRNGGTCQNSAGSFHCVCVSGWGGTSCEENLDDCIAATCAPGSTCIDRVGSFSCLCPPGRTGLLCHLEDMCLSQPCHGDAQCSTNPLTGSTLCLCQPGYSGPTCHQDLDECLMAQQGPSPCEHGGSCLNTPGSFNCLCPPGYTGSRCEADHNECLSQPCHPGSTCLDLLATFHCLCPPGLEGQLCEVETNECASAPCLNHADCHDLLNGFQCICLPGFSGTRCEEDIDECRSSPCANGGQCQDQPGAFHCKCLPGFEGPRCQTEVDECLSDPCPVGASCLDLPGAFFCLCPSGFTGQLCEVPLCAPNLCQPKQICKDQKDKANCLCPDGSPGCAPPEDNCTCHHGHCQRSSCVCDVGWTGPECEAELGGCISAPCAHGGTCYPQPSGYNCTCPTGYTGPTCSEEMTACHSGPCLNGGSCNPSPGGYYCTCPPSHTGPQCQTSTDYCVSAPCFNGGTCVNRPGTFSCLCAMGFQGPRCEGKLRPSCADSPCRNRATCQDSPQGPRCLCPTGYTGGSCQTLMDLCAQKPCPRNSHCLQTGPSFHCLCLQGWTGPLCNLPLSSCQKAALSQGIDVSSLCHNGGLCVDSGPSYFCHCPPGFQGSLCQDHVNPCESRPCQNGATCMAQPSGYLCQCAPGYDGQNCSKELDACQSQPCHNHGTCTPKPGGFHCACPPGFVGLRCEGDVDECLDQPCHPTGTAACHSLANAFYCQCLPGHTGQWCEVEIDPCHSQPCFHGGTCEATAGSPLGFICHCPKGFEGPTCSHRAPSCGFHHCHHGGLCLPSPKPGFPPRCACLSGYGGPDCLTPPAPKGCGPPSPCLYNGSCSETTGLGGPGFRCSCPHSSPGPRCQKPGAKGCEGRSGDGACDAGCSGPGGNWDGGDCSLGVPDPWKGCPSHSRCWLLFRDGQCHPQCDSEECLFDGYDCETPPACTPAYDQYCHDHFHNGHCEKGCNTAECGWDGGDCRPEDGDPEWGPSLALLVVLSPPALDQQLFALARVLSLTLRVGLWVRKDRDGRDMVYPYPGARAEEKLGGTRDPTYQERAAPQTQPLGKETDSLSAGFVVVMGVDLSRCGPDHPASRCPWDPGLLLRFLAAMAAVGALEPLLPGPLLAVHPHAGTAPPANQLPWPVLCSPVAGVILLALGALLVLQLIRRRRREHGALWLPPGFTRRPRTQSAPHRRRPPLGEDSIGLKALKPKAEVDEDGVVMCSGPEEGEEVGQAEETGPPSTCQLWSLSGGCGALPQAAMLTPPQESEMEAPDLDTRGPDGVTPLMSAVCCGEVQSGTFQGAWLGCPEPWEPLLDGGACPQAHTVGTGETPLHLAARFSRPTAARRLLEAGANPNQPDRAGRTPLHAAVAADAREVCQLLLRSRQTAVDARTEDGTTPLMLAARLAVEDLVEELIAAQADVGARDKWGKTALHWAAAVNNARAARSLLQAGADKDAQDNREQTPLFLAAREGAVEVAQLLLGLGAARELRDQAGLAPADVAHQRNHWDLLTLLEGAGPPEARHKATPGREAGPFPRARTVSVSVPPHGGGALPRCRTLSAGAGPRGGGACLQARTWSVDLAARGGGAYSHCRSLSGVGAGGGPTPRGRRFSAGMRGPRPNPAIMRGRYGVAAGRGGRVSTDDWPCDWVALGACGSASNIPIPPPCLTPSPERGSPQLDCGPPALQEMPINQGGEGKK

B1: 59R1 IgG2 antibody (antibody, V domains shown)
VH: QVQLVESGGGLVQPGGSLRLSCAASGFTFSSSGMSWVRQAPGKGLEWVSVIASSGSNTYYADSVKGRFTISRDNSKNTLYLQMNSLRAEDTAVYYCARGIFFAIWGQGTLVTVSS
VL: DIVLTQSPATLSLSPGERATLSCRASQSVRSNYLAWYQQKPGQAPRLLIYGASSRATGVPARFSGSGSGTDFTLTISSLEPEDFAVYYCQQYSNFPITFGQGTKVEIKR
notes: Human IgG2/kappa made in CHO cells; also called anti-Notch2/3 antibody 59R1
In the case of B1, the Kd (in general, the equilibrium constant for the complex coming apart) in [1] was 0.12 nM; in [2] it was 0.35 nM; in assay [3], less than 0.1 nM; in assay [4], 0.13 nM; in assay [7], 0.19 nM; in [8], 0.05 nM. Moreover, the Kd was determined as 0.65 nM in [9] and 0.32 nM in [10]. In addition, the figures for the binding result in assay [5] and in assay [6] were “no binding” and “no binding (tested: 2 ug/ml)”, respectively.

These data come from patent US20130260455A1 (ONCOMED PHARMACEUTICALS, published 2013).
